Values of other authors as cited in patent US7759315B2, “Treatment of inflammatory conditions of the intestine” (CSL Behring AG, priority 2005, dated 2010).
Non-standard residues stand in square brackets, D forms with d. No end group written: not given here. Orn = NCCC[C@H](N)C(=O)O; Aib = CC(C)(N)C(=O)O

Molecular target: T1, LCAT (Homo sapiens, UniProt P04180)
T1 sequence (P04180 25-440): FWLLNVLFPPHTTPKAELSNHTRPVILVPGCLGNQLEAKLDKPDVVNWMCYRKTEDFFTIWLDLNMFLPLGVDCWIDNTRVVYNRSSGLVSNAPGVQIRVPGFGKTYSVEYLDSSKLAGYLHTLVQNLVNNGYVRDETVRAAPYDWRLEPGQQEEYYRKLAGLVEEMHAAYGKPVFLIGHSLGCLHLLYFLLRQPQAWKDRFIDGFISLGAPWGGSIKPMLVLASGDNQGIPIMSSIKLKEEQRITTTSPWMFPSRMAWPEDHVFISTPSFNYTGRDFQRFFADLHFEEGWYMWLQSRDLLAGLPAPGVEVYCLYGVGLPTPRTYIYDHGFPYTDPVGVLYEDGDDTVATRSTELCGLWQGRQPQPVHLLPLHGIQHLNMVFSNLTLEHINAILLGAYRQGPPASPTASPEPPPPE

Substance | ACTIVITY (%) LCAT [%]
PVLDEFWEKLNEXLEALKQKLK (PVLDEFWEKLNE[Aib]LEALKQKLK; not fully specified (C-terminus)) [Peptide 73] | 10
PVLDFFREKLNEXLEALKQKLK (PVLDFFREKLNE[Aib]LEALKQKLK; not fully specified (C-terminus)) [Peptide 63] | 16
PVLDFFRELLEELKQKLK* (not fully specified (N-terminus, C-terminus); printed as PVLDFFRELLEELKQKLK*) [Peptide 204] | 63
PVLDKFRELLNEXLEALKQKLK (PVLDKFRELLNE[Aib]LEALKQKLK) [Peptide 88] | 7
PVLDLFDNLLDRLLDLLNKKLK [Peptide 173] | 15
PVLDLFKELLEELKQKLK* (not fully specified (N-terminus, C-terminus); printed as PVLDLFKELLEELKQKLK*) [Peptide 192] | 100
PVLDLFKELLQELLEALKQKLK [Peptide 11] | 72
PVLDLFREGLNELLEALKQKLK [Peptide 20] | 57
PVLDLFREKLNELLEALKQKLK [Peptide 33] | 33
PVLDLFRELGEELKQKLK* (not fully specified (N-terminus, C-terminus); printed as PVLDLFRELGEELKQKLK*) [Peptide 227] | 0
PVLDLFRELGNELLEALKQKLK [Peptide 9] | 83
PVLDLFRELLEEGKQKLK* (not fully specified (N-terminus, C-terminus); printed as PVLDLFRELLEEGKQKLK*) [Peptide 229] | 0
PVLDLFRELLNELLEALQKKLK [Peptide 24] | 53
PVLDLFRELLNELLEGLKQKLK [Peptide 22] | 54
PVLDLFRELLNELLELLKQKLK [Peptide 127] | 47
PVLDLFRELLNELLQKLK* (not fully specified (N-terminus, C-terminus); printed as PVLDLFRELLNELLQKLK*) [Peptide 218] | 29
PVLDLFRELLNELWQKLK [Peptide 219] | 24
PVLDLFRNLLEELLKALEQKLK [Peptide 57] | 18
PVLEFFENLLERLLDALQKKLK [Peptide 157] | 30
PVLELFDNLLDKLLDALQKKLR [Peptide 180] | 8
PVLELFDNLLEKLLEALQKKLR [Peptide 178] | 9
PVLELFENGLERLLDALQKKLK [Peptide 167] | 18
PVLELFENLGERLLDALQKKLK [Peptide 151] | 55

Substance | ACTIVITY (%) LCAT [%]
PVLELFENLLEKLLDLLQKKLK [Peptide 171] | 16
PVLELFENLLEOLLDALQOOLO (PVLELFENLLE[Orn]LLDALQ[Orn][Orn]L[Orn]) [Peptide 170] | 17
PVLELFENLLERLFDALQKKLK [Peptide 147] | 76
PVLELFENLLERLLDLLQKKLK [Peptide 165] | 23
PVLELFENLLERLLELLNKKLK [Peptide 175] | 13
PVLELFEQLLEKLLDALQKKLK [Peptide 168] | 17
PVLELFERLLDELLNALQKKLK [Peptide 86] | 7
PVLELFKELLEELKQKLK [Peptide 216] | 35
PVLELFKELLEELKQKLK* (not fully specified (N-terminus, C-terminus); printed as PVLELFKELLEELKQKLK*) [Peptide 195] | 87
PVLELFLNLLEKLLDALQKKLK [Peptide 166] | 22
PVLELFLNLLERLLDAWQKKLK [Peptide 184] | 4
PVLELFLNLWERLLDALQKKLK [Peptide 155] | 38
PVLELLKELLEELKQKLK* (not fully specified (N-terminus, C-terminus); printed as PVLELLKELLEELKQKLK*) [Peptide 207] | 50
PVLELWENLLERLLDALQKKLK [Peptide 176] | 11
PWLDEFREKLNEXLEALKQKLK (PWLDEFREKLNE[Aib]LEALKQKLK; not fully specified (C-terminus)) [Peptide 64] | 15
XVLDLFRELLNELLEALKQKLK ([Aib]VLDLFRELLNELLEALKQKLK; not fully specified (C-terminus)) [Peptide 32] | 33
pVLDLFRELLEELKQKLK* ([dP]VLDLFRELLEELKQKLK; not fully specified (N-terminus, C-terminus); printed as pVLDLFRELLEELKQKLK*; also: * mark of unstated meaning) [Peptide 214] | 39
pVLDLFRELLNEGLEALKQKLK ([dP]VLDLFRELLNEGLEALKQKLK; not fully specified (C-terminus); printed as pVLDLFRELLNEGLEALKQKLK) [Peptide 19] | 58
pVLDLFRELLNELLEALKQKLK [Peptide 21] | 57
pVLDLFRELLNELLEALKQKLKK ([dP]VLDLFRELLNELLEALKQKLKK; not fully specified (C-terminus); printed as pVLDLFRELLNELLEALKQKLKK) [Peptide 5] | 90
pvLDLFRELLNELLEALKQKLK [Peptide 48] | 22
~VLDLFRELLNEGLEALKQKLK [Peptide 47] | 23
~~LDEFREKLNEXLEALKQKLK (LDEFREKLNE[Aib]LEALKQKLK; not fully specified (C-terminus); printed as ~~LDEFREKLNEXLEALKQKLK) [Peptide 82] | 8

Other lines, results leading:

ACTIVITY (%) LCAT [%] | Substance
10 | PVLDKFREKLNEXLEALKQKLK (PVLDKFREKLNE[Aib]LEALKQKLK; not fully specified (C-terminus)) [Peptide 74]
9 | PVLDLFERLLNELLEALQKKLK [Peptide 80]
43 | PVLDLFOELLEELOQOLK* (PVLDLF[Orn]ELLEEL[Orn]Q[Orn]LK; not fully specified (N-terminus, C-terminus); printed as PVLDLFOELLEELOQOLK*) [Peptide 212]
0 | PVLDLFREGLEELKQKLK* (not fully specified (N-terminus, C-terminus); printed as PVLDLFREGLEELKQKLK*) [Peptide 228]
8 | PVLDLFREGWEELKQKLK [Peptide 224]
0 | PVLDLFREKLNEELEALKQKLK [Peptide 106]
81 | PVLDLFRELLEELKNKLK* (not fully specified (N-terminus, C-terminus); printed as PVLDLFRELLEELKNKLK*) [Peptide 196]
45 | PVLDLFRELLEELOQOLO* (PVLDLFRELLEEL[Orn]Q[Orn]L[Orn]; not fully specified (N-terminus, C-terminus); printed as PVLDLFRELLEELOQOLO*) [Peptide 211]
2 | PVLDLFRELLNEELEALKQKLK [Peptide 98]
70 | PVLDLFRELLNELLEAGKQKLK [Peptide 12]
18 | PVLDLFRELLNELLEALKQKKK [Peptide 56]
4 | PVLDLFRELLNELLE~~~~~~~ [Peptide 97]
2 | PVLDLFRELLNLXLEALKEKLK (PVLDLFRELLNL[Aib]LEALKEKLK; not fully specified (C-terminus)) [Peptide 102]
60 | PVLDLFREWLEELKQKLK* (not fully specified (N-terminus, C-terminus); printed as PVLDLFREWLEELKQKLK*) [Peptide 205]
100 | PVLDLLRELLEELKQKLK* (not fully specified (N-terminus, C-terminus); printed as PVLDLLRELLEELKQKLK*) [Peptide 191]
59 | PVLDLLRELLNELLEALKQKLK [Peptide 16]
8 | PVLELFDNLLERLLDALQKKLK [Peptide 179]
17 | PVLELFENLLEKLLDALQKKLK [Peptide 169]
7 | PVLELFENLLEKLLEALQKKLK [Peptide 182]
3 | PVLELFENLLERLLDALQOOLO (PVLELFENLLERLLDALQ[Orn][Orn]L[Orn]; not fully specified (C-terminus)) [Peptide 185]
27 | PVLELFENLLERLLEALQKKLK [Peptide 161]
8 | PVLELFENLLERWLDALQKKLK [Peptide 181]
59 | PVLELFKELLQELLEALKQKLK [Peptide 17]
16 | PVLELFLNLLERLGDALQKKLK [Peptide 172]
35 | PVLELFLNLLERLLDALQKKLK [Peptide 156]
19 | VVLDLFRELLNELLEALKQKLK [Peptide 53]
13 | pvlelfenllerlldalgkklk ([dP][dV][dL][dE][dL][dF][dE][dN][dL][dL][dE][dR][dL][dL][dD][dA][dL][dQ][dK][dK][dL][dK]) [Peptide 174]
15 | ~VLDEFREKLNEXLEALKQKLK (VLDEFREKLNE[Aib]LEALKQKLK; not fully specified (C-terminus); printed as ~VLDEFREKLNEXLEALKQKLK) [Peptide 65]
